Results from patent US7098372B1, “Pharmaceutical compositions and methods of using secreted frizzled related protein” (Wyeth, priority 1999, dated 2006).
One block for each molecule: values may come before it.

Tests used:
[1] = biological target: T1, PTH-1 receptor (Homo sapiens, UniProt Q03431); test: Intracellular cAMP assay in hOB-01-C1-PS-09 cells; assay type: cell-based; details: preincubation at 34° C.
T1 construct: the hOB-01-C1-PS-09 cell line was selected for further characterization based on its high-level of PTH-1 receptor mRNA expression; endogenous in cells; host or cells: hOB-01-C1-PS-09 cells (ATCC PTA-785)
T1 sequence (Q03431 27-593): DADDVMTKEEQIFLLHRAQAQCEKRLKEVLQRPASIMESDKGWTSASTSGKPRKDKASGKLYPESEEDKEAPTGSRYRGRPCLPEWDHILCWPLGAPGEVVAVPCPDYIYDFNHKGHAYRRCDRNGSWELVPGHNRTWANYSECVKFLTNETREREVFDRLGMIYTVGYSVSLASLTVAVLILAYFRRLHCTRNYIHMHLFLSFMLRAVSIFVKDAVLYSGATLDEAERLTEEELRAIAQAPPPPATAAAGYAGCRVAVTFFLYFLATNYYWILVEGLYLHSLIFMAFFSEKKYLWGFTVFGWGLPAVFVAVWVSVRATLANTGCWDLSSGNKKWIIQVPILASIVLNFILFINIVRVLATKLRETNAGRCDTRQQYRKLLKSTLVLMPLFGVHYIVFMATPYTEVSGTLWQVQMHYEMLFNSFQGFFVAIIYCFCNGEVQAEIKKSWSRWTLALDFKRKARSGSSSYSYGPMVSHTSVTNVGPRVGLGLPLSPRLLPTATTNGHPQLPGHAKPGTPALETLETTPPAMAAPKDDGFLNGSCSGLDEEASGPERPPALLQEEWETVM
Experimental: As mentioned above, the hOB-01-C1-PS-09 cell line was selected for further characterization based on its high-level of PTH-1 receptor mRNA expression. […] Consistent with this enhanced PTH-1 receptor expression, […] increasing concentrations of human PTH 1–34 (hPTH 1–34) for 10 min at 37° C. generates a dose-dependent 5- to 6-fold increase in intracellular cyclic-adenosine monophosphate (cAMP) levels (FIG. 24). […] Thus, both PTH-1 receptor expression and responsiveness are enhanced following inactivation of the tsA-209 T-antigen. One potential utility for this cAMP assay would be the ability to characterize the activities of PTH-analogs or -mimetics in an important target cell under conditions where levels of PTH-1 receptor expression are dramatically altered.

[2] = system: hOB SFRP mRNA; test: Northern blot analysis of hOB SFRP mRNA expression; assay type: cell-based, human
Source text: The hOB SFRP gene fragment was identified using RADE (rapid analysis of differential expression) technology as described by Shiue 1997 Drug Develop. Res. 41: 142–159, the whole of which is incorporated herein. Three hOB cell lines (hOB-03-C5, hOB-03-CE6 and hOB-01-C1), representing three distinct stages of differentiation (proliferative, mature and preosteocytic, respectively) were used to isolate and identify SFRP. The hOB cell lines were established and cultured as previously described (Bodine et al. 1996 J. Bone Miner. Res. 11: 806–819; Bodine et al. 1996 Endocrinology 137: 4592–4604; Bodine et al. 1997 J. Cell. Biochem. 65: 368–387). […] However, in contrast to osteosarcoma cells (Stein and Lian 1993 Endocrine Rev. 14: 424–442), the hOB cell lines were faithful to the proliferation/differentiation relationship at the nonpermissive temperature (>37° C.) when the T-antigen mutant is inactivated. The cell lines were seeded into 150 mm dishes at ˜40,000 cells/cm^2 with growth medium [D-MEM/F-12 containing 10% (v/v) heat-inactivated fetal bovine serum (FBS), 1% (v/v) Penicillin-Streptomycin and 2 mM GlutaMAX-1] and incubated overnight at 34° C. The next day, the medium was removed, the cells were rinsed with phosphate-buffered saline (PBS), 20 ml of serum-free medium was added to the dishes [phenol red-free D-MEM/F-12 (Gibco/BRL) containing 0.25% (w/v) bovine serum albumin (BSA, Pentex crystallized, Bayer), 1% (v/v) Penicillin-Streptomycin, 2 mM GlutaMAX-1, […] ascorbate-2-phosphate (Wako), and 10 nM menadione sodium bisulfite (vitamin K3)], and the dishes were incubated at 39° C. for 24 hr. The next day, the medium was removed and the cells were treated at 39° C. for an additional 24 hr with 20 ml of fresh serum-free medium containing either vehicle (Control), 8 nM human parathyroid hormone 1–34 (PTH), 100 nM prostaglandin E2 (PGE2) or 0.1 nM human transforming growth factor-β1 (TGF-β1). PTH, PGE2 and TGF-β1 are known osteogenic agents (Whitfield and Morley 1995 Trends Pharmaceut. Sci. 16:382–386; Jee and Ma 1997 Bone 21:297–304; Centrella et al. 1994 Endocrine Rev. 15:27–39). After the treatment period, the dishes were rinsed with PBS and total cellular RNA was isolated from the nontreated and treated cells using TRIzol according to the manufacturers instructions (GibcoBRL). RADE was then performed with the isolated RNA samples as above; the regulated gene fragments were identified, cloned and sequenced. These experiments identified a total of 82 differentially expressed genes. A BLAST (basic local alignment search tool) search of the public data bases was performed on the RADE-obtained gene fragments; one of the gene fragments was highly homologous to mouse SFRP-1. This gene fragment was identified during RADE using the following primer pair: 5′-[…]-3′ (HT11A)3′ end (reverse primer) and 5′-[…]-3′ (H-AP1) 5′ end (forward primer), which sequences are SEQ ID NO 11 and SEQ ID NO 12, respectively. The expression and regulation of the gene fragment having homology to mouse cDNA SFRP-1 was confirmed by Northern blot analysis.
In order to confirm the regulation of hOB SFRP gene expression by different osteogenic agents (i.e., the DNA fragment identified in Example 1, above), the hOB cell lines were treated with PTH, PGE2, and TGF-β1; RNA was then isolated for Northern hybridizations. The experiments were performed as follows. The hOB cell lines were seeded into 150 mm dishes and treated as described in Example 1, except that polyA+ RNA was isolated from total cellular RNA using Oligotex mRNA maxi kits as described by the manufacturer (Qiagen). Northern blot analysis was performed using either the excised RADE hOB SFRP gene fragment, the cloned hOB SFRP gene fragment or the cloned full-length hOB SFRP cDNA as a ^32P-labeled probe (as described in Bodine et al. 1996 J. Bone Miner. Res. 11: 806–819, which is incorporated herein). Each of these probes detected a 4.4–4.6 kb message in the hOB cells. […]

[3] = system: hOB SFRP mRNA; test: hOB SFRP mRNA levels after treatment with various agents (method not given); assay type: cell-based, human; details: various hOB cell lines
[4] = system: hOB-01-C1-PS-09 cells; test: Cell viability of hOB-01-C1-PS-09 cells stably transfected with hOB SFRP cDNA; assay type: cell-based, human; details: stably transfected hOB-01-C1-PS-09 cells
Source text: For these experiments, the cells were stably transfected with either an hOB SFRP cDNA (i.e., SFRP-1/FRP-1/SARP-2) mammalian expression plasmid or the empty vector (i.e., pcDNA3.1). The results are presented as the % of the day 0 control cells.
For these experiments, the cells were stably transfected with either an hOB SFRP cDNA (i.e., SFRP-1/FRP-1/SARP-2) mammalian expression plasmid or the empty vector (i.e., pcDNA3.1, which is obtained from Invitrogen of Carlsbad, Calif.). Standard cloning technigues were used (See Ausubel et al. 1997 Short Protocols in M<olecular Biology, 3rd edition, Wiley {New York}). The results are presented as the % of the day 0 control cells.

[5] = system: Wnt signaling; test: TCF-luciferase reporter gene assay of Wnt signaling; assay type: cell-based, human; details: transfected cDNA, hOB-01-C1-PS-09 or hOB-02-C1-PS-02 cells
Experimental: SARP-2 or human Frzb-1 expression plasmids downregulates Wnt signaling (when compared to the pcDNA3.1 empty vector control) in the hOB cells as measured by the TCF-luciferase reporter gene assay. This assay is an authentic measurement of Wnt signaling and β-catenin nuclear activity.
In order to determine if the up-regulation of SFRP-1/FRP-1/SARP-2 gene expression results in an antagonism of the Wnt signaling pathway, hOB-03-CE6 cells were treated with PGE2 and the resulting cells probed with β-catenin monoclonal antibody. Overexpression of Wnt proteins in cells up-regulates a signaling protein known as β-catenin (reviewed in Moon et al. 1997 Cell 88: 725–728; Barth et al. 1997 Curr. Opin. Cell Biol. 9: 683–690; and Nusse 1997 Cell 89: 321–323). […] Therefore, hOB-03-CE6 cells were plated and treated with PGE2 as described in Example 1, except that total cellular protein was extracted and a Western blot analysis for β-catenin was performed using a monoclonal antibody to the protein (Transduction Laboratories) as previously described (Bodine et al. 1996 Endocrinology 137: 4592–4604; Melkonyan et al. 1997 Proc. Natl. Acad. Sci. USA 94: 13636–13641). […] Both human and rat SFRP-1/FRP-1/SARP-2, as well as human Frzb-1/FrzB/Fritz, suppressed TCF-luciferase activity in the hOB cells.

increase in cAMP concentrations [1]: does not result in a subsequent increase
Molecule: human parathyroid hormone 1–34 [PTH]
regulation of SFRP mRNA ([2]; SaOS-2 human osteosarcoma cells, 24 hr, 37° C.): not regulated
suppression of basal hOB SFRP expression ([2]; hOB-01-C1 cells, 8 nM): 35%
effect on hOB SFRP message expression [3]: suppresses

TCF-luciferase activity [5]: suppressed
B1: SFRP-1/FRP-1/SARP-2: human osteoblast secreted frizzled related protein, SEQ ID NO 2, expressed from transfected cDNA in pcDNA3.1 (protein, listed as Homo sapiens)
chain: MGIGRSEGGRRGAALGVLLALGAALLAVGSASEYDYVSFQSDIGPYQSGRFYTKPPQCVDIPADLRLCHNVGYKKMVLPNLLEHETMAEVKQQASSWVPLLNKNCHAGTQVFLCSLFAPVCLDRPIYPCRWLCEAVRDSCEPVMQFFGFYWPEMLKCDKFPEGDVCIAMTPPNATEASKPQGTTVCPPCDNELKSEAIIEHLCASEFALRMKIKEVKKENGDKKIVPKKKKPLKLGPIKKKDLKKLVLYLKNGADCPCHQLDNLSHHFLIMGRKVKSQYLLTAIHKWDKKNKEFKNFMKKMKNHECPTFQSVFK
rate of cell death on overexpression versus empty vector [4]: accelerates the rate of cell death
